One molecule from publication PMC10027511 (2023) can be followed below.

Assay [1] addresses T1, Sos site 2 peptide site 2 peptide (Drosophila melanogaster, UniProt P26675).
T1 chain: GELSPPPIPPRL
Briefly: 19F NMR lineshape analysis, 25 °C.

Assay [2] concerns the target T1, Sos site 2 peptide site 2 peptide. Briefly: 19F NMR lineshape analysis, 15 °C.
For assay [3] the target is unchanged. Put plainly: 19F NMR lineshape analysis, 35 °C.
For assay [4] the target is unchanged. Briefly: 19F NMR lineshape analysis, 45 °C.
Assay [5] shares this target. Put plainly: 19F NMR lineshape analysis, 4.2 °C.

B1: Drk N-terminal SH3 domain N-terminal SH3 (protein)
chain: MEAIAKHDFSATADDELSFRKGQILKILNMEDDSNWYRAELDGKEGLIPSNYIEMKNH
One may read the Kd as the equilibrium constant for the complex coming apart. Regarding B1, the Kd is 33 µM in assay [1]; 17 µM in assay [2]; 59 µM in assay [3]; 110 µM in assay [4]; 9 µM in assay [5].
